The record followed here is PMC10397247.

One test addresses T1, 4H3631-bA.
T1 chain: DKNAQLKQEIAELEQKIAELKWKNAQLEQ
Put plainly: two-hybrid library CCNG1.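 Also: natural log of median RNA to DNA barcode read ratio; higher means stronger binding.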

Another test concerns the target T2, 4H3638-bA.
T2 chain: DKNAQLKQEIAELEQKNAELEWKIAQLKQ
Put plainly: two-hybrid library CCNG1.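 Also: natural log of median RNA to DNA barcode read ratio; higher means stronger binding.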

In another test the target is T3, 4H3817-bA.
T3 chain: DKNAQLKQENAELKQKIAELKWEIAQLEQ
As to the kind of experiment: two-hybrid library CCNG1.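 Also: natural log of median RNA to DNA barcode read ratio; higher means stronger binding.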

The target of another test is T4, 4H3974-bA.
T4 chain: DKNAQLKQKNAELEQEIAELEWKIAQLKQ
As to the kind of experiment: two-hybrid library CCNG1.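 Also: natural log of median RNA to DNA barcode read ratio; higher means stronger binding.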

In a further test the target is T5, 4H570-bA.
T5 chain: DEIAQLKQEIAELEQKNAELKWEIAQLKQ
Put plainly: two-hybrid library CCNG1.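 Also: natural log of median RNA to DNA barcode read ratio; higher means stronger binding.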

In a further test the target is T6, 4H584-bA.
T6 chain: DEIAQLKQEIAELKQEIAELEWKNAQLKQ
Put plainly: two-hybrid library CCNG1.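 Also: natural log of median RNA to DNA barcode read ratio; higher means stronger binding.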

The next test deals with T7, 4H619-bA.
T7 chain: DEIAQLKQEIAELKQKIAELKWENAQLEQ
Put plainly: two-hybrid library CCNG1.

The target of the next test is T8, 4H850-bA.
T8 chain: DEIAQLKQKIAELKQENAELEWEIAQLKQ
As to the kind of experiment: two-hybrid library CCNG1.

A further test addresses T9, 4H906-bA.
T9 chain: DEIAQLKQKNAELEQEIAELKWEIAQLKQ
As to the kind of experiment: two-hybrid library CCNG1.

For the next test, the target named is T10, P6SC1.
T10 chain: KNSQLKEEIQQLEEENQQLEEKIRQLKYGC
As to the kind of experiment: two-hybrid library CC1.

The target in another test is T11, P6SC2.
T11 chain: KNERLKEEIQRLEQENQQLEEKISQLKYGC
Put plainly: two-hybrid library CC1. As to conditions: mean of both orientations.

The target in another test is T12, P6mS.
T12 chain: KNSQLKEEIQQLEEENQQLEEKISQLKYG
As to the kind of experiment: two-hybrid library CC1. The note with it: mean of both orientations.

A further test addresses T13, P7.
T13 chain: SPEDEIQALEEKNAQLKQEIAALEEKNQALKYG
Put plainly: two-hybrid library CC1. The note with it: mean of both orientations.

The next test deals with T14, P7mS.
T14 chain: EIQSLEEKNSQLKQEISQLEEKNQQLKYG
Put plainly: two-hybrid library CC1. As to conditions: mean of both orientations.

A further test addresses T15, P8.
T15 chain: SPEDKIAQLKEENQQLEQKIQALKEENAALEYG
As to the kind of experiment: two-hybrid library CC1. As to conditions: mean of both orientations.

The target of the next test is T16, P8mS.
T16 chain: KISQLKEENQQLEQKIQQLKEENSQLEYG
As to the kind of experiment: two-hybrid library CC1. As to conditions: mean of both orientations.

For another test, the target named is T17, P9.
T17 chain: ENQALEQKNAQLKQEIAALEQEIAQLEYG
As to the kind of experiment: two-hybrid library CC1. As to conditions: mean of both orientations.

The target in a further test is T18, 4H3628-bA.
T18 chain: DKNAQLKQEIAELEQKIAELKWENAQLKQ
Put plainly: two-hybrid library CCNG1.

The target of the next test is T19, 4H3858-bA.
T19 chain: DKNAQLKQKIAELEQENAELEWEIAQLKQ
As to the kind of experiment: two-hybrid library CCNG1.

Another test addresses T20, 4H3926-bA.
T20 chain: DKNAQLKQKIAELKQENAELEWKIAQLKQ
As to the kind of experiment: two-hybrid library CCNG1.

Another test has as its target T21, 4H591-bA.
T21 chain: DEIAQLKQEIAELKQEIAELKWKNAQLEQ
Put plainly: two-hybrid library CCNG1.

The target in a further test is T22, 4H626-bA.
T22 chain: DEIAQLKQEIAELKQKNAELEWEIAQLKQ
Put plainly: two-hybrid library CCNG1.

The next test concerns the target T23, 4H278-AA.
T23 chain: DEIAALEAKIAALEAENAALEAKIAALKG
As to the kind of experiment: two-hybrid library CCmax.

A further test has as its target T24, 4H2873-AA.
T24 chain: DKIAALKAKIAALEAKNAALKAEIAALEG
As to the kind of experiment: two-hybrid library CCmax. The note with it: mean of both orientations.

In another test the target is T25, 4H2985-AA.
T25 chain: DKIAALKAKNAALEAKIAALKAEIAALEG
As to the kind of experiment: two-hybrid library CCmax. As to conditions: mean of both orientations.

In the next test the target is T26, 4H3134-AA.
T26 chain: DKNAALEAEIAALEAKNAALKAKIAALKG
As to the kind of experiment: two-hybrid library CCmax. As to conditions: mean of both orientations.

A further test concerns the target T27, 4H3409-AA.
T27 chain: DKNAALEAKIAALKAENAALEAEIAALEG
Put plainly: two-hybrid library CCmax. The note with it: mean of both orientations.

For another test, the target named is T28, 4H3625-AA.
T28 chain: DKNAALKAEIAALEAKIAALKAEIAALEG
As to the kind of experiment: two-hybrid library CCmax. The note with it: mean of both orientations.

The next test deals with T29, 4H390-AA.
T29 chain: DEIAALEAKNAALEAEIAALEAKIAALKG
Put plainly: two-hybrid library CCmax. As to conditions: mean of both orientations.

The target of another test is T30, 4H3940-AA.
T30 chain: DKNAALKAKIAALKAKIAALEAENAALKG
As to the kind of experiment: two-hybrid library CCmax. As to conditions: mean of both orientations.

In another test the target is T31, 4H510-AA.
T31 chain: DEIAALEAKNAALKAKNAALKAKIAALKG
Put plainly: two-hybrid library CCmax. The note with it: mean of both orientations.

The target of another test is T32, 4H775-AA.
T32 chain: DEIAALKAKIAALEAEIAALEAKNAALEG
Put plainly: two-hybrid library CCmax.

The next test has as its target T33, 4H816-AA.
T33 chain: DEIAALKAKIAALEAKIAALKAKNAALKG
As to the kind of experiment: two-hybrid library CCmax. As to conditions: mean of both orientations.

For a further test, the target named is T34, 4H87-AA.
T34 chain: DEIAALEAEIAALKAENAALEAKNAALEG
As to the kind of experiment: two-hybrid library CCmax. The note with it: mean of both orientations.

For a further test, the target named is T35, 4H3497-bN.
T35 chain: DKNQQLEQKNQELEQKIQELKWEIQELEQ
As to the kind of experiment: two-hybrid library CCNG1.

Another test deals with T36, 4H3613-bN.
T36 chain: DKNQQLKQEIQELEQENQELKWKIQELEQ
As to the kind of experiment: two-hybrid library CCNG1.

In a further test the target is T37, 4H3628-bN.
T37 chain: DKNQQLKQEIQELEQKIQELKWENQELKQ
As to the kind of experiment: two-hybrid library CCNG1.

Another test deals with T38, 4H3926-bN.
T38 chain: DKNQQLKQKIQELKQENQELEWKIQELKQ
Put plainly: two-hybrid library CCNG1.

The target of another test is T39, 4H591-bN.
T39 chain: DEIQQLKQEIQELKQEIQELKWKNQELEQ
Put plainly: two-hybrid library CCNG1.

Another test deals with T40, 4H626-bN.
T40 chain: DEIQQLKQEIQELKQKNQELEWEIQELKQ
Put plainly: two-hybrid library CCNG1.

The target in the next test is T41, 4H906-bN.
T41 chain: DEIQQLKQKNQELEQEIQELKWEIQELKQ
Put plainly: two-hybrid library CCNG1.

Another test addresses T42, 4H3638-bN.
T42 chain: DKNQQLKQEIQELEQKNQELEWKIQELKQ
As to the kind of experiment: two-hybrid library CCNG1.

The target of a further test is T43, 4H3817-bN.
T43 chain: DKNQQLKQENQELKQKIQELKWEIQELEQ
Put plainly: two-hybrid library CCNG1.

A further test concerns the target T44, 4H3974-bN.
T44 chain: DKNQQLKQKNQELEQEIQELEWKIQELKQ
As to the kind of experiment: two-hybrid library CCNG1.

In a further test the target is T45, 4H570-bN.
T45 chain: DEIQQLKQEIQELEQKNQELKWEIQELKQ
Put plainly: two-hybrid library CCNG1.

Another test concerns the target T46, 4H584-bN.
T46 chain: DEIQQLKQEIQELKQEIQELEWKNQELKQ
Put plainly: two-hybrid library CCNG1.

Another test addresses T47, 4H619-bN.
T47 chain: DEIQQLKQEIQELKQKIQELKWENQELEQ
Put plainly: two-hybrid library CCNG1.

For a further test, the target named is T48, 4H850-bN.
T48 chain: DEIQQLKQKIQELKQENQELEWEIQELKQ
Put plainly: two-hybrid library CCNG1.

The target in another test is T49, 4H953-bH.
T49 chain: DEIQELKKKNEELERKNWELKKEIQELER
As to the kind of experiment: two-hybrid library CCNG1.

A further test addresses T50, 4H3613-bA.
T50 chain: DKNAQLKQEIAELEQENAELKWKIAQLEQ
As to the kind of experiment: two-hybrid library CCNG1.

The next test concerns the target T51, O7-AA.
T51 chain: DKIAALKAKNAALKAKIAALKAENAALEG
As to the kind of experiment: two-hybrid library CCmax.

Another test has as its target T52, O8-AA.
T52 chain: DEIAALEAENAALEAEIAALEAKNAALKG
Put plainly: two-hybrid library CCmax. As to conditions: mean of both orientations.

The next test concerns the target T53, P10-AA.
T53 chain: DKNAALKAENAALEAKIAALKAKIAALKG
Put plainly: two-hybrid library CCmax. As to conditions: mean of both orientations.

Another test has as its target T54, P9-AA.
T54 chain: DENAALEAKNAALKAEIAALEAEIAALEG
As to the kind of experiment: two-hybrid library CCmax. As to conditions: mean of both orientations.

Turning to DKNAQLKQEIAELEQKIAELKWKNAQLEQ [4H3631-bA], the interaction score with 4H3631-bA is 0.816; with 4H3638-bA, -0.00348; with 4H3817-bA, 0.452; with 4H3974-bA, 0.937; in the test with 4H570-bA, -0.919; with 4H584-bA, 0.0123. The interaction score in the test with 4H619-bA was -0.0328; in the test with 4H850-bA it was -0.369; with 4H906-bA, -0.872.

KNSQLKEEIQQLEEENQQLEEKIRQLKYGC [P6SC1]: the interaction score in the test with P6SC1 is -2.56; with P6SC2, -2.43; in the test with P6mS it was -2.87; with P7 it was -0.456; with P7mS, -2.22; in the test with P8, -2.12. Further, the results for the interaction score in the test with P8mS and with P9 were -2.55 and -1.54, respectively.

DKNAQLKQEIAELEQKIAELKWENAQLKQ [4H3628-bA]: the interaction score in the test with 4H3628-bA is 0.549; with 4H3817-bA, 0.612; with 4H3858-bA, -0.214; in the test with 4H3926-bA, 0.307; with 4H3974-bA, 1.31; with 4H570-bA, -0.226. Further, the interaction score with 4H591-bA is -0.511; with 4H626-bA, -1.6; with 4H850-bA, 0.124; with 4H906-bA, -0.866.

Consider DEIAALEAKIAALEAENAALEAKIAALKG [4H278-AA], for which the interaction score with 4H278-AA turned out to be 1.38; with 4H2873-AA, 1.66; with 4H2985-AA it was 1.94; with 4H3134-AA, 1.9; with 4H3409-AA, 0.702; in the test with 4H3625-AA, 1.32. Besides, the interaction score is 1.6 with 4H390-AA; 0.936 with 4H3940-AA; 1.09 in the test with 4H510-AA; -1.16 with 4H775-AA; 0.427 with 4H816-AA; -1.44 in the test with 4H87-AA.

Turning to DKNQQLEQKNQELEQKIQELKWEIQELEQ [4H3497-bN], the interaction score was -1.39 in the test with 4H3497-bN; -1.36 with 4H3613-bN; -0.414 with 4H3628-bN; -1.9 in the test with 4H3926-bN; -0.818 in the test with 4H591-bN; -2.23 in the test with 4H626-bN. This molecule registered an interaction score in the test with 4H906-bN of -0.915.

Regarding DKNAQLKQENAELKQKIAELKWEIAQLEQ [4H3817-bA], the interaction score in the test with 4H3817-bA was -0.506; in the test with 4H3858-bA, -1.18; with 4H3974-bA it was 1.27; with 4H570-bA it was -1.2; with 4H584-bA, -1.24; with 4H619-bA, -1.25. The figures for the interaction score with 4H850-bA and with 4H906-bA were -0.849 and -0.916, respectively.

Turning to DKNQQLKQEIQELEQKNQELEWKIQELKQ [4H3638-bN], the interaction score was 0.732 with 4H3638-bN; -0.442 in the test with 4H3817-bN; -0.469 with 4H3974-bN; 0.408 with 4H570-bN; 0.234 with 4H584-bN; -1.26 in the test with 4H619-bN. Further, the interaction score was 0.801 in the test with 4H850-bN, -0.17 in the test with 4H906-bN and -2.56 with 4H953-bH.

As for DKNAQLKQEIAELEQENAELKWKIAQLEQ [4H3613-bA], the interaction score was -0.128 with 4H3613-bA; -0.292 with 4H3628-bA; -0.898 with 4H3817-bA; -0.117 with 4H3858-bA; 2.15 with 4H3926-bA; -0.83 in the test with 4H3974-bA. The interaction score was -0.148 with 4H570-bA; -0.523 in the test with 4H591-bA; -0.846 in the test with 4H626-bA; 0.586 with 4H850-bA; -0.971 in the test with 4H906-bA.

For DKIAALKAKNAALKAKIAALKAENAALEG [O7-AA], the interaction score in the test with O7-AA is -1.65; with O8-AA, 2.12; in the test with P10-AA it was -1.18; with P9-AA, -1.37.
